Source: paper PMC6694467

Target: monomeric PKG Iβ that lacks the dimerization domain
Test: crystal structure; PKG Iβ holoenzyme lacking the dimerization domain, 2.3 Å; inhibited state

## monomeric PKG Iβ that lacks the dimerization domain (domain or fragment)
  stoichiometry N: 2
